Square brackets hold non-standard residues; d marks the D form. Ends that are not written are not given here. Peptide text beside a SMILES is read from it.
Legend:
[1] = target: full-length recombinant GRP78 (Homo sapiens, UniProt P11021); assay: Biacore binding assay of peptides; settings: for Binding to GRP78 compared to the L-peptide: Biacore; for Binding to GRP78 compared to the L-peptide / binding responses in Biacore: in words; for Binding index: peptide at 50 μM, difference of RUs divided by molecular weight, normalized to the L-peptide
full-length recombinant GRP78, sequence (P11021 19-654): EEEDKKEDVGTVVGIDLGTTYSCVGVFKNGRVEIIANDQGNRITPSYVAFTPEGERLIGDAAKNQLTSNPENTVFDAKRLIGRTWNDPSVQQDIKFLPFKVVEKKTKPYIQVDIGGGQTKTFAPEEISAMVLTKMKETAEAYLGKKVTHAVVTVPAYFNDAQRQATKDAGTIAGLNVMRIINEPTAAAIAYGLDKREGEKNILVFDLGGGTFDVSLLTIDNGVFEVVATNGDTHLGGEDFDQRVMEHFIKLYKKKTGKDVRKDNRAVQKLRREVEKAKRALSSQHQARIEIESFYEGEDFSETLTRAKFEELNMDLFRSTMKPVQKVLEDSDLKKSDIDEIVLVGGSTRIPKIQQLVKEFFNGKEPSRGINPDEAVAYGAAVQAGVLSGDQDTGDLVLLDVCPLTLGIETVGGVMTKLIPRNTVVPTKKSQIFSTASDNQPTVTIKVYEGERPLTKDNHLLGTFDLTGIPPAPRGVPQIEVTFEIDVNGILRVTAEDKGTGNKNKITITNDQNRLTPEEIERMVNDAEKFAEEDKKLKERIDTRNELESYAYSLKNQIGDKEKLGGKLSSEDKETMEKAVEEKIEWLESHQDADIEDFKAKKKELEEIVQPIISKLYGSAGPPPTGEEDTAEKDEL
Method: 26 candidate peptides designed by the method described in Example 1 (listed in Table 6 below) above and peptide CdL, a negative control, were synthesized by conventional chemical synthesis and subjected to the surface-plasmon-resonance based method described below to examine the binding activities of the peptides to human GRP78.
The chip NTA and HBS-P buffer were obtained from GE Healthcare. Sensor chip NTA was prepared by combining Ni-ion chelation and covalent immobilization of N-His tagged GRP78 via amine-coupling with nitrilotriacetic acid on chip NTA (FIG. 6). To immobilize GRP78 protein on sensor chip for peptide-binding assay using Biacore, the methods based on Ni-ion chelation and amine coupling reaction were combined. Sensor chip NTA was prepared by chelation followed by covalent immobilization of N-His-tagged GRP78 via amine-coupling at the nitrilotriacetic acid group on chip NTA. The sensor chip NTA, HBS-P buffer and amine coupling kits were all obtained from GE Healthcare. First, the activation of chip surface using EDC and NHS reagents for amine coupling were according to the standard procedure from manufacturer's instruction. Additionally, one-minute pulse of NiCl2 solution (500 μM) was used to attract His-tagged GRP78 to the surface of sensor chip and formed covalent bond subsequently in the condition of HBS-P buffer (pH 7.4). The resulting differences of RU were about 5,000-6,000 RU. After de-activation by ethanolamine and washed with EDTA (3 mM), the prepared sensor chip was then applied to Biacore X for binding assay. The HBS-P buffer containing 1 mM Gly was used as running buffer for binding assay. Solution of 20 mM sodium hydroxide dissolved in running buffer was used to regenerate the chip surface by one-minute pulse.
The sensor chip thus prepared was applied to Biacore X for determining the binding between the peptides and GRP78. The HBS-P buffer containing 1 mM Gly was used as a running buffer. A solution of 20 mM sodium hydroxide dissolved in the running buffer was used to regenerate chip surface by 1-minute pulses.
The binding of various peptides to GRP78 is also shown as a binding index in Table 6. The binding index represents the difference of resonance units (RUs) divided by the molecular weight of each peptide and was normalized by comparison to the L-peptide.

TW01 cells = assay: Flow cytometry binding of FITC-labeled peptide, TW01; type: cell-based; settings: Nasopharyngeal
Method: (§1) Cells were grown to 80% confluence and harvested with 5 mmol/L EDTA in PBS. Breast cancer specimens were obtained from patients who underwent initial surgery at Tri-Service General Hospital (Taipei, Taiwan). The clinical breast cancer specimens were sliced to fragments of 1 mm2 in size and subjected to enzymatic digestion by collagenase (1,000 U/mL), hyaluronidase (300 U/mL), and DNase I (100 μg/mL) at 37° C. for 2 hours. Primary breast tumor cells were collected after filtration through a 100 μm cell strainer (BD Biosciences) and re-suspended. For transplantation, tumor cells mixed with normal human breast fibroblasts and Matrigel were subcutaneously injected into mammary fat pads of female NOD/SCID mice received a sub-lethal dose of gamma irradiation in advance. After transplantation, cells of xenografted tumors were isolated and inoculated in NOD/SCID mice for serial passages. The cancer cell lines, xenograft cells, and primary breast tumor cells were re-suspended in a FACS buffer (PBS with 2% fetal bovine serum) and incubated at room temperature for 30 min with FITC-conjugated various peptides. To determine breast cancer stem cell (BCSCs) and non-breast cancer stem cell (non-BCSC) populations from xenografts, the cells were stained with a mixture of anti-H2Kd-biotin followed by streptavidin-PER-CP, anti-CD24-PE, anti-CD44-APC and FITC-conjugated various peptides. The primary breast tumor cells were stained with anti-CD45-PerCP-Cy5.5 antibodies, instead of H2Kd staining. The stained cells were then subjected to FACS analysis.

MDA-MB-231 cells = assay: Flow cytometry binding of FITC-labeled peptide, MDA-MB-231; type: cell-based; settings: Breast
Method: as §1

[2] = test system: human primary breast cancer BC0145 and BC0244 engrafted in NOD/SCID mice; assay: Flow cytometry binding of FITC-labeled peptides to xenograft cells (BCSC-enriched and non-BCSC); type: cell-based; settings: for Binding capacities in vitro compared with L-peptide: both BCSCs and non-BCSCs
Method: To evaluate the in vitro binding abilities of cancer-targeting peptides described herein, the FITC-labeled L-peptide, P-6, P-12, P-13, and P-16 were tested for their binding activities to cancer cells, primary breast cancer engrafted in NOD/SCID mice, and clinical breast cancer specimens by a flow cytometric analysis as described below.
as §1
The binding capacities of the L-peptide and the P-6, P-12, P-13, and P-16 peptides to two xenograft samples from NOD-SCID mice transplanted with human primary breast cancer cell lines BC0145 and BC0244 were evaluated with special focus on their binding to the BCSC subpopulation enriched from the breast cancer cells. Breast cancer cells harvested from engrafted tumors were stained with H2Kd to gate out mouse cells, and stained with anti-CD24 and anti-CD44 antibodies to distinguish BCSC-enriched cells (CD24^−CD44^+) from non-BCSC cells. These cells were co-stained with one of the above-noted peptides, which was FITC-labeled and subjected to flow cytometric analysis. […] The binding abilities of these peptides to clinical breast specimens were similar to those to xenograft samples. […] FIG. 7, panel d.

GRP78 = GRP78 (Homo sapiens, UniProt P11021); assay: Dissociation constant of L-peptide binding to GRP78; settings: dose-dependent binding to GRP78
GRP78, sequence (P11021 19-654): as above

Molecule: RLLDTNRPHLWY [P-12]
- Binding to GRP78 compared to the L-peptide [1]: bound to GRP78 better than the L-peptide
- binding responses in Biacore [1]: significant binding responses
- Binding index [1]: 1.2~3.5
- Binding ability (TW01 cells): bound
- Binding ability (MDA-MB-231 cells): bound
- Binding capacities in vitro compared with L-peptide ([2]; FITC-labeled peptides): greater binding capacities in vitro than L-peptide

Molecule: RLLDTNRPMLKY [P-8]
- Binding index [1]: <0.2

Molecule: CC(C)C[C@H](NC(=O)[C@H](CC(C)C)NC(=O)[C@@H](N)CCCNC(=N)N)C(=O)N[C@@H](CC(=O)O)C(=O)N[C@H](C(=O)N[C@@H](CC(N)=O)C(=O)N[C@@H](CCCNC(=N)N)C(=O)N1CCC[C@H]1C(=O)N[C@@H](CC(C)C)C(=O)N[C@@H](CC(C)C)C(=O)N1CCC[C@H]1C(=O)N[C@@H](Cc1ccc(O)cc1)C(=O)O)[C@@H](C)O [L-peptide] (H-RLLDTNRPLLPY-OH)
- Kd (GRP78): 1 to 10 µM

Molecule: RLLDTNRPKLVY [P-2]
- Binding index [1]: <0.2

Molecule: RLLDTNRPDLPY [PA-3]
- Binding index [1]: <0.2

Molecule: RLLDTNRPPLCY [P-9]
- Binding index [1]: <0.2

Molecule: RLLDTNRPELPY [PA-2]
- Binding index [1]: <0.2

Molecule: RLLDTNRPQLVY [P-3]
- Binding index [1]: <0.2

Molecule: RLLDTNRPKLRY [P-16]
- Binding index [1]: <0.2

Molecule: RLLDTNRPKLFY [P-4]
- Binding index [1]: <0.2

Molecule: RLLDTNRPL(d-L)PY (RLLDTNRPL[dL]PY) [CdL, negative control peptide, reference compound]
- Binding index [1]: <0.2

Molecule: RLLDTNRPFLPY [P-6]
- Binding to GRP78 compared to the L-peptide [1]: bound to GRP78 better than the L-peptide
- binding responses in Biacore [1]: significant binding responses
- Binding index [1]: 1.1~1.52
- Binding ability (TW01 cells): bound
- Binding ability (MDA-MB-231 cells): bound
- binding capacity to BCSC-enriched cells ([2]; FITC-labeled peptide, BCSC-enriched cells isolated from the BC0145 xenograft): equivalent to P-12
- Binding capacities in vitro compared with L-peptide ([2]; FITC-labeled peptides): greater binding capacities in vitro than L-peptide

Molecule: RLLDTNRPYLKY [P-1]
- Binding index [1]: <0.2

Molecule: RLLDTNRPMLMY [P-5]
- Binding index [1]: <0.2

Molecule: RLLDTNRPRLEY [P-17]
- Binding index [1]: <0.2

Molecule: RLLDTNRPLLGY [P-11]
- Binding index [1]: 0.77

Molecule: RLLDTNRPHLKY [P-15]
- Binding index [1]: <0.2

Molecule: RLLDTNRPYLWY [PB-2]
- binding responses in Biacore [1]: significant binding responses
- Binding index [1]: 3

Molecule: RLLDTNRPFLKY [P-10]
- Binding index [1]: <0.2

Molecule: RLLDTNRPQLPY [PA-5]
- Binding index [1]: 0.3

Molecule: RLLDTNRPFLWY [PB-1]
- binding responses in Biacore [1]: significant binding responses
- Binding index [1]: 1.6

Molecule: RLLDTNRPHLPY [PA-6]
- Binding index [1]: 0.47

Molecule: RLLDTNRPWLPY [PA-1]
- Binding to GRP78 compared to the L-peptide [1]: significantly decreased the binding
- Binding index [1]: 0.35

Molecule: RLLDTNRPLLLY [P-14]
- Binding index [1]: 0.21

Molecule: RLLDTNRPLLPY(CONH2) (RLLDTNRPLLPY-NH2) [PB-3, L-peptide modified with the amidation (CONH2)]
- Binding to GRP78 compared to the L-peptide [1]: did not significantly affect the binding affinity
- binding responses in Biacore [1]: significant binding responses
- Binding index [1]: 1.15

Molecule: RLLDTNRPNLPY [PA-4]
- Binding index [1]: 0.31

Molecule: RLLDTNRPSLFY [P-7]
- Binding index [1]: <0.2

Molecule: RLLDTNRPFLFY [P-13]
- Binding to GRP78 compared to the L-peptide [1]: bound to GRP78 better than the L-peptide
- binding responses in Biacore [1]: significant binding responses
- Binding index [1]: 1.4~3.5
- Binding ability (TW01 cells): bound
- Binding ability (MDA-MB-231 cells): bound
- Staining strength (order of binding) ([2]; FITC-labeled peptides, BCSC-enriched and non-BCSC cells of BC0145 and BC0244 xenografts): stained most strongly
- Binding capacities in vitro compared with L-peptide ([2]; FITC-labeled peptides): greater binding capacities in vitro than L-peptide
